This note sets out measurements from PMC6374468 (Nature Communications, 2019).

For this test, the target named is monomeric gp120 from isolate BaL (HIV-1 clade B, isolate BaL (clone not …, UniProt Q6TAP7, strain)). The experiment in a line: ELISA. For orientation: An ELISA detects its analyte on a solid surface through an enzyme-linked reagent.

B1: VRC01 FR3-03 (antibody, V domains shown)
VH: QVQLVQSGGQMKKPGESMRISCRASGYEFIDCTLNWIRLAPGKRPEWMGWLKPRGGAVNYARPLQGRVTMTRQLSQDPDDPDWGTAFLELRSLTVDDTAVYFCTRGKNCDYNWDFEHWGRGTPVIVGG
VL: EIVLTQSPGTLSLSPGETAIISCRTSQYGSLAWYQQRPGQAPRLVIYSGSTRAAGIPDRFSGSRWGPDYNLTISNLESGDFGVYYCQQYEFFGQGTKVQVG
As for B1, the binding result is “binds”.
